Reference: the supplement of paper PMC9112550, “Optimization of the antimicrobial peptide Bac7 by deep mutational scanning” (BMC Biology, 2022)

System: Escherichia coli TOP10
Test: shrunken log2 fold change of peptide-encoding DNA abundance (4.5 h post-induction vs induction); higher = less antimicrobial activity (less host growth inhibition)
Settings: time post-induction: 4.5 h; library: site-saturation at positions 5, 18, 19, 20
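Note: peptides expressed intracellularly from a pBAD plasmid library in pooled LB shake-flask culture, induced with 0.3% L-arabinose, DNA abundance read by NGS, three biological replicates, DESeq2 with apeglm shrinkage.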

Sequence | shrunken log2 fold change
RRIRARPPRLPRPRPRPPFRPRP | 0.977
RRIRARPPRLPRPRPRPPFSPRP | 0.137
RRIRARPPRLPRPRPRPPGAPRP | 1.11
RRIRARPPRLPRPRPRPPGEPRP | 0.381
RRIRARPPRLPRPRPRPPGIPRP | 0.331
RRIRARPPRLPRPRPRPPGWPRP | 1.22
RRIRARPPRLPRPRPRPPIYPRP | 0.0905
RRIRARPPRLPRPRPRPPKCPRP | 0.274
RRIRARPPRLPRPRPRPPKFPRP | 0.121
RRIRARPPRLPRPRPRPPKTPRP | 0.12
RRIRARPPRLPRPRPRPPKWPRP | 0.732
RRIRARPPRLPRPRPRPPLYPRP | 0.606
RRIRARPPRLPRPRPRPPNWPRP | 0.59
RRIRARPPRLPRPRPRPPQEPRP | 0.854
RRIRARPPRLPRPRPRPPSCPRP | 0.503
RRIRARPPRLPRPRPRPPSHPRP | 0.351
RRIRARPPRLPRPRPRPPSWPRP | 0.736
RRIRARPPRLPRPRPRPPTGPRP | 0.663
RRIRARPPRLPRPRPRPPTLPRP | 0.503
RRIRARPPRLPRPRPRPPVVPRP | 0.378
RRIRARPPRLPRPRPRPQAWPRP | 0.376
RRIRARPPRLPRPRPRPQCMPRP | 0.153
RRIRARPPRLPRPRPRPQCQPRP | 0.457
RRIRARPPRLPRPRPRPQDHPRP | -0.208
RRIRARPPRLPRPRPRPQEAPRP | 0.197

Sequence | shrunken log2 fold change
RRIRARPPRLPRPRPRPQECPRP | -0.0292
RRIRARPPRLPRPRPRPQEQPRP | 0.0884
RRIRARPPRLPRPRPRPQEVPRP | -0.0933
RRIRARPPRLPRPRPRPQFCPRP | -0.0724
RRIRARPPRLPRPRPRPQGDPRP | 0.207
RRIRARPPRLPRPRPRPQGPPRP | -0.0931
RRIRARPPRLPRPRPRPQGTPRP | 0.451
RRIRARPPRLPRPRPRPQIQPRP | 0.503
RRIRARPPRLPRPRPRPQKPPRP | 0.117
RRIRARPPRLPRPRPRPQKYPRP | -0.363
RRIRARPPRLPRPRPRPQMQPRP | 0.508
RRIRARPPRLPRPRPRPQMYPRP | -0.3
RRIRARPPRLPRPRPRPQPGPRP | 0.563
RRIRARPPRLPRPRPRPQPRPRP | 0.721
RRIRARPPRLPRPRPRPQRMPRP | 0.0748
RRIRARPPRLPRPRPRPQRQPRP | 0.24
RRIRARPPRLPRPRPRPQSIPRP | -0.0868
RRIRARPPRLPRPRPRPQTRPRP | 0.874
RRIRARPPRLPRPRPRPQTSPRP | 0.00801
RRIRARPPRLPRPRPRPQVYPRP | -0.174
RRIRARPPRLPRPRPRPQWLPRP | 0.144
RRIRARPPRLPRPRPRPRAYPRP | 0.178
RRIRARPPRLPRPRPRPRDEPRP | 1.06
RRIRARPPRLPRPRPRPRDIPRP | 0.0507
RRIRARPPRLPRPRPRPRDMPRP | 1.52

Sequence | shrunken log2 fold change
RRIRARPPRLPRPRPRPRDVPRP | 0.261
RRIRARPPRLPRPRPRPRERPRP | 0.334
RRIRARPPRLPRPRPRPRFMPRP | 0.0944
RRIRARPPRLPRPRPRPRICPRP | 0.29
RRIRARPPRLPRPRPRPRKRPRP | 0.778
RRIRARPPRLPRPRPRPRMAPRP | 0.479
RRIRARPPRLPRPRPRPRSKPRP | 0.374
RRIRARPPRLPRPRPRPRSYPRP | 0.242
RRIRARPPRLPRPRPRPRTIPRP | 0.148
RRIRARPPRLPRPRPRPRVGPRP | 0.352
RRIRARPPRLPRPRPRPRVKPRP | 0.488
RRIRARPPRLPRPRPRPRYDPRP | 0.166
RRIRARPPRLPRPRPRPRYPPRP | 0.0172
RRIRARPPRLPRPRPRPRYSPRP | -0.121
RRIRARPPRLPRPRPRPSAHPRP | 0.101
RRIRARPPRLPRPRPRPSALPRP | 0.591
RRIRARPPRLPRPRPRPSDEPRP | 0.324
RRIRARPPRLPRPRPRPSDLPRP | -0.073
RRIRARPPRLPRPRPRPSDRPRP | -0.0583
RRIRARPPRLPRPRPRPSGVPRP | -0.136
RRIRARPPRLPRPRPRPSIIPRP | -0.254
RRIRARPPRLPRPRPRPSIPPRP | -0.349
RRIRARPPRLPRPRPRPSIVPRP | -0.103
RRIRARPPRLPRPRPRPSKDPRP | -0.111
RRIRARPPRLPRPRPRPSLEPRP | 0.455

Sequence | shrunken log2 fold change
RRIRARPPRLPRPRPRPSLSPRP | -0.224
RRIRARPPRLPRPRPRPSMAPRP | 0.333
RRIRARPPRLPRPRPRPSQKPRP | 0.106
RRIRARPPRLPRPRPRPSQSPRP | 0.0538
RRIRARPPRLPRPRPRPSVIPRP | -0.0459
RRIRARPPRLPRPRPRPSVPPRP | -0.179
RRIRARPPRLPRPRPRPSWDPRP | 0.244
RRIRARPPRLPRPRPRPSYCPRP | -0.311
RRIRARPPRLPRPRPRPSYQPRP | -0.234
RRIRARPPRLPRPRPRPTAIPRP | 0.977
RRIRARPPRLPRPRPRPTCCPRP | 0.653
RRIRARPPRLPRPRPRPTDIPRP | 0.224
RRIRARPPRLPRPRPRPTDPPRP | 0.2
RRIRARPPRLPRPRPRPTEIPRP | -0.0477
RRIRARPPRLPRPRPRPTFFPRP | 0.197
RRIRARPPRLPRPRPRPTFIPRP | -0.18
RRIRARPPRLPRPRPRPTFNPRP | 0.0685
RRIRARPPRLPRPRPRPTGTPRP | 0.363
RRIRARPPRLPRPRPRPTHKPRP | 0.577
RRIRARPPRLPRPRPRPTHLPRP | 0.326
RRIRARPPRLPRPRPRPTIDPRP | 0.301
RRIRARPPRLPRPRPRPTKKPRP | 0.0778
RRIRARPPRLPRPRPRPTKTPRP | 0.247
RRIRARPPRLPRPRPRPTLPPRP | 0.263
RRIRARPPRLPRPRPRPTLVPRP | 0.562

Sequence | shrunken log2 fold change
RRIRARPPRLPRPRPRPTMIPRP | 0.00226
RRIRARPPRLPRPRPRPTMLPRP | 0.15
RRIRARPPRLPRPRPRPTMVPRP | -0.0882
RRIRARPPRLPRPRPRPTNWPRP | 0.835
RRIRARPPRLPRPRPRPTQYPRP | 0.116
RRIRARPPRLPRPRPRPTRHPRP | 0.615
RRIRARPPRLPRPRPRPTSEPRP | 0.751
RRIRARPPRLPRPRPRPTSYPRP | -0.0752
RRIRARPPRLPRPRPRPTTPPRP | 0.605
RRIRARPPRLPRPRPRPTVEPRP | 1.19
RRIRARPPRLPRPRPRPTVMPRP | 0.497
RRIRARPPRLPRPRPRPTWRPRP | 0.813
RRIRARPPRLPRPRPRPTYEPRP | 0.179
RRIRARPPRLPRPRPRPTYHPRP | -0.225
RRIRARPPRLPRPRPRPTYKPRP | -0.23
RRIRARPPRLPRPRPRPVCWPRP | 0.894
RRIRARPPRLPRPRPRPVDDPRP | 0.469
RRIRARPPRLPRPRPRPVEAPRP | 0.365
RRIRARPPRLPRPRPRPVEYPRP | 0.0729
RRIRARPPRLPRPRPRPVFPPRP | 0.207
RRIRARPPRLPRPRPRPVGKPRP | 0.196
RRIRARPPRLPRPRPRPVGLPRP | 0.321
RRIRARPPRLPRPRPRPVGVPRP | 0.528
RRIRARPPRLPRPRPRPVHAPRP | 0.768
RRIRARPPRLPRPRPRPVHHPRP | -0.0524

Sequence | shrunken log2 fold change
RRIRARPPRLPRPRPRPVIMPRP | -0.42
RRIRARPPRLPRPRPRPVKAPRP | 0.0269
RRIRARPPRLPRPRPRPVMPPRP | 0.457
RRIRARPPRLPRPRPRPVMVPRP | 0.0116
RRIRARPPRLPRPRPRPVMYPRP | 0.0749
RRIRARPPRLPRPRPRPVNFPRP | 0.629
RRIRARPPRLPRPRPRPVNWPRP | 0.459
RRIRARPPRLPRPRPRPVPPPRP | 1.05
RRIRARPPRLPRPRPRPVPRPRP | 0.536
RRIRARPPRLPRPRPRPVQEPRP | 0.509
RRIRARPPRLPRPRPRPVQMPRP | 0.21
RRIRARPPRLPRPRPRPVQQPRP | 0.954
RRIRARPPRLPRPRPRPVTLPRP | -0.121
RRIRARPPRLPRPRPRPVVIPRP | 0.206
RRIRARPPRLPRPRPRPVWDPRP | 0.312
RRIRARPPRLPRPRPRPVYDPRP | 0.0386
RRIRARPPRLPRPRPRPVYKPRP | -0.35
RRIRARPPRLPRPRPRPVYQPRP | -0.068
RRIRARPPRLPRPRPRPVYTPRP | -0.159
RRIRARPPRLPRPRPRPWCAPRP | 0.147
RRIRARPPRLPRPRPRPWEAPRP | 0.221
RRIRARPPRLPRPRPRPWELPRP | 0.0412
RRIRARPPRLPRPRPRPWEMPRP | 0.00132
RRIRARPPRLPRPRPRPWEWPRP | 0.0233
RRIRARPPRLPRPRPRPWFHPRP | -0.301
